Consider 1 substance from US20190382490A1.

Common to all, as to test: Fc receptor binding, method not stated
The target of experiment [1] is CD16-V158 (FcγRIIIa) (human) (UniProt P08637).
The next experiment has as its target CD64 (FcγRIa) (human) (UniProt P12314).
In experiment [2] the target is CD32-R131 (FcγRIIa) (human) (UniProt P12318).
In experiment [3] the target is CD32-H131 (FcγRIIa) (human) (UniProt P12318).

One may read the Kd as the concentration at which binding is half-saturated. Read a low Kd as tighter binding.

UniProt P12314, sequence (P12314 16-288 limits assumed): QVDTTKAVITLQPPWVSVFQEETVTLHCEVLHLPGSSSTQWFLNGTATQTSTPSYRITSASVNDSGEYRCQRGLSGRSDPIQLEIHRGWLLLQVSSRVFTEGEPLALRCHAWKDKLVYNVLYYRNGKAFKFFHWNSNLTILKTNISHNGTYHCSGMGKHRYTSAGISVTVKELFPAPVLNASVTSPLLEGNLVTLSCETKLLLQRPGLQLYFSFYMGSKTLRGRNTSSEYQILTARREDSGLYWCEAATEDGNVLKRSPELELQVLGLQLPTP
UniProt P08637, sequence (P08637 17-208 F176V limits assumed): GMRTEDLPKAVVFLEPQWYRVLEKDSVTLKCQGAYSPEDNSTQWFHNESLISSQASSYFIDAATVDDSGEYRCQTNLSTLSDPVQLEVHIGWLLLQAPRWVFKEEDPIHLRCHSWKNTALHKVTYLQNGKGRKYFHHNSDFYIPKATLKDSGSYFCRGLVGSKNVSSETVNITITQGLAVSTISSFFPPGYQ

For the substance “IgG1f antibody (fucosylated, otherwise unmodified human IgG1f Fc region)”, the Kd was 97 nM in experiment [1], 0.2 nM with CD64 (FcγRIa) (human), 960 nM in experiment [2] and 530 nM in experiment [3].
